Where “and” joins values, the source holds several entries; their conditions need not be identical. Equal values may be shown once.

The series “native gel or EMSA” deals with the molecule itself. Briefly: native gel or EMSA. (In general: A gel shift assay detects complexes by their altered migration in electrophoresis.)
The series “SEC” concerns the molecule itself. Nature of the series: SEC. On the technique in general: Size exclusion chromatography separates by hydrodynamic size, large species first.

B1: Flavodiiron protein Flv3 (sll0550) in Synechocystis sp. PCC 6803 (natural protein, UniProt Q55393 1-573, looked up)
chain: MFTTPLPPQKRLSTQTEAIAKNITAIRSLDWDRDRFDIEFGLQNGTTYNSYLIQADKVALVDSSHEKFRQLYLDLLQGLIDPQRIDYLIVSHTEPDHSGLVKDILQLNPRITVVATKVALQFLDNFVHQPFERIQVKSGDRLDLGQGHDLEFVSAPNLHWPDTMLTYDPATEILFTCDVFGMHYCSDAVFDIDLGKIAPDYQFYYDCLMGPNARSVLAAMKRMDNLGTISTVANGHGPLLRHNVGELLHRYRHWSESQSKAEKTVVVFYVADYGYGDRLSQAIAKGITKTGVGVDMVDLSSADPQEIQELVGHASGVVLGMPPLQANADLSTNFGAVLAAMQPKQVFGLYESYGGDDEPIDPLRTKFLDLGLREAFKVIKVKDTPSESTYQLCDESGTDLGQNLIQAAKIKQLKSLDSDLEKAIGRISGGLYIITAQKGEVKGAMLASWVSQASFNPPGFTVAVAKDRAIESLMQVGDRFVLNILEEGNYQILMKHFLKRFPPGADRFAGVKTQTASNGSPILTDALAYLECEVASRMECSDHWIVYSQVTNGRVAKAEGLTAVHHRKVGNYY
For the protein B1, in “native gel or EMSA”, the “stoichiometry N” value worked out at 2.

B2: His-tagged Flv3 expressed in Escherichia coli (natural protein, Synechocystis sp. PCC 6803, UniProt Q55393 1-573, looked up)
chain: MFTTPLPPQKRLSTQTEAIAKNITAIRSLDWDRDRFDIEFGLQNGTTYNSYLIQADKVALVDSSHEKFRQLYLDLLQGLIDPQRIDYLIVSHTEPDHSGLVKDILQLNPRITVVATKVALQFLDNFVHQPFERIQVKSGDRLDLGQGHDLEFVSAPNLHWPDTMLTYDPATEILFTCDVFGMHYCSDAVFDIDLGKIAPDYQFYYDCLMGPNARSVLAAMKRMDNLGTISTVANGHGPLLRHNVGELLHRYRHWSESQSKAEKTVVVFYVADYGYGDRLSQAIAKGITKTGVGVDMVDLSSADPQEIQELVGHASGVVLGMPPLQANADLSTNFGAVLAAMQPKQVFGLYESYGGDDEPIDPLRTKFLDLGLREAFKVIKVKDTPSESTYQLCDESGTDLGQNLIQAAKIKQLKSLDSDLEKAIGRISGGLYIITAQKGEVKGAMLASWVSQASFNPPGFTVAVAKDRAIESLMQVGDRFVLNILEEGNYQILMKHFLKRFPPGADRFAGVKTQTASNGSPILTDALAYLECEVASRMECSDHWIVYSQVTNGRVAKAEGLTAVHHRKVGNYY
As to B2, the “stoichiometry N” value in “SEC” was 2 and 4.

For orientation: stoichiometry N means a count of units in the complex or per binding partner.
